Data from article PMC8231827, “A Novel Protein–Protein Interaction between RSK3 and IκBα and a New Binding Inhibitor That Suppresses Breast Cancer Tumorigenesis” (Cancers, 2021).

Molecular target: T1, pBIND-IκBα (GAL4 DNA-binding domain fusion of IκBα) (UniProt P25963 1-317)
T1 construct: source: HEK293T, transfected, mammalian two-hybrid fusion
T1 sequence (looked up): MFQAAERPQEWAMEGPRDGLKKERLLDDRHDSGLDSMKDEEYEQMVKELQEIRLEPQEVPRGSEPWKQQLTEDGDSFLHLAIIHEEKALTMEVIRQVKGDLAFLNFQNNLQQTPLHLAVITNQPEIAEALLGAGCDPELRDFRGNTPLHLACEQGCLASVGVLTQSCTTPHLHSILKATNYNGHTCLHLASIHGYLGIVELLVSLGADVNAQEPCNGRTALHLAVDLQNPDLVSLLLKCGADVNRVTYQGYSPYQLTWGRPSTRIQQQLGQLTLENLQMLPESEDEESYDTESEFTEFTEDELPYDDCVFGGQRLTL
Experiment: two-hybrid; mammalian two-hybrid (CheckMate, Promega) in HEK293T: pBIND-IκBα (GAL4), pACT-RSK3 (VP16), pG5luc; firefly luciferase normalised to renilla, 24 h after transfection; also with RSK3I added 4 h after transfection
Conditions: partners not purified

B1: pACT-RSK3 (VP16 activation domain fusion of RSK3) (natural protein, UniProt Q15349 1-733, looked up)
chain: MDLSMKKFAVRRFFSVYLRRKSRSKSSSLSRLEEEGVVKEIDISHHVKEGFEKADPSQFELLKVLGQGSYGKVFLVRKVKGSDAGQLYAMKVLKKATLKVRDRVRSKMERDILAEVNHPFIVKLHYAFQTEGKLYLILDFLRGGDLFTRLSKEVMFTEEDVKFYLAELALALDHLHSLGIIYRDLKPENILLDEEGHIKITDFGLSKEAIDHDKRAYSFCGTIEYMAPEVVNRRGHTQSADWWSFGVLMFEMLTGSLPFQGKDRKETMALILKAKLGMPQFLSGEAQSLLRALFKRNPCNRLGAGIDGVEEIKRHPFFVTIDWNTLYRKEIKPPFKPAVGRPEDTFHFDPEFTARTPTDSPGVPPSANAHHLFRGFSFVASSLIQEPSQQDLHKVPVHPIVQQLHGNNIHFTDGYEIKEDIGVGSYSVCKRCVHKATDTEYAVKIIDKSKRDPSEEIEILLRYGQHPNIITLKDVYDDGKFVYLVMELMRGGELLDRILRQRYFSEREASDVLCTITKTMDYLHSQGVVHRDLKPSNILYRDESGSPESIRVCDFGFAKQLRAGNGLLMTPCYTANFVAPEVLKRQGYDAACDIWSLGILLYTMLAGFTPFANGPDDTPEEILARIGSGKYALSGGNWDSISDAAKDVVSKMLHVDPHQRLTAMQVLKHPWVVNREYLSPNQLSRQDVHLVKGAMAATYFALNRTPQAPRLEPVLSSNLAQRRGMKRLTSTRL
notes: RSK3 (RPS6KA2) cloned into pACT; source: HEK293T, transfected, mammalian two-hybrid fusion
fold luciferase activity over the pBind-IκBα vector-only control: ~3 fold
